Data taken from paper PMC5538626 (2017).

B1: PLEKHM1‐LIR WT peptide (EDEWVNVQY), biotinylated [modified: biotin; biotin] [not stated] / 6xHis‐tagged LC3B [human] (parent complex)
chain 1: EDEWVNVQY
chain 2: not shown
B2: PLEKHM1‐LIR WT peptide (EDEWVNVQY), biotinylated [modified: biotin; biotin] [not stated] / 6xHis‐tagged LC3C [human] (parent complex)
chain 1: EDEWVNVQY
chain 2: MPPPQKIPSVRPFKQRKSLAIRQEEVAGIRAKFPNKIPVVVERYPRETFLPPLDKTKFLVPQELTMTQFLSIIRSRMVLRATEAFYLLVNNKSLVSMSATMAEIYRDYKDEDGFVYMTYASQETFG
B3: PLEKHM1‐LIR WT peptide (EDEWVNVQY), biotinylated [modified: biotin; biotin] [not stated] / 6xHis‐tagged GABARAP‐L1 [human] (parent complex)
chain 1: EDEWVNVQY
chain 2: not shown

Variants of: B1
Experiment: peptide array (biotinylated LIR peptide, 6xHis-mATG8, absorbance); n = 3; read off a plot

| Variant | percent of parent [% Mutant LIR/WT] |
| --- | --- |
| chain 1 W4A, chain 1 V7A | ~8 |
| chain 1 V7I | ~200 |
| chain 1 V7L | ~250 |
| chain 1 W4Y | ~10 |
| chain 1 W4F | ~8 |

Variants of: B1
Experiment: peptide array (biotinylated LIR peptide, 6xHis-mATG8, absorbance); n = 5; read off a plot

| Variant | ratio to parent |
| --- | --- |
| chain 1 W4A, chain 1 V7A | ~0.17 |
| chain 1 V5C, chain 1 N6F, chain 1 V7L | ~1.9 |
| chain 1 V5C, chain 1 N6V, chain 1 V7L | ~2.3 |
| chain 1 V5C, chain 1 N6I, chain 1 V7L | ~2.4 |

Variants of: B2
Experiment: peptide array ELISA (biotinylated peptide on streptavidin plate, 6xHis-mATG8, anti-His-HRP, TMB); absorbance at 450 nm; n = 4; read off a plot

| Variant | screen value [fold over mutLIR] |
| --- | --- |
| chain 1 V7A | ~1.4 |
| chain 1 V5A, chain 1 N6A | ~1.2 |
| chain 1 N6A | ~1.7 |
| chain 1 V5A | ~1.5 |

Variants of: B2
Experiment: peptide array (biotinylated LIR peptide, 6xHis-mATG8, absorbance); n = 3; read off a plot

| Variant | percent of parent [% Mutant LIR/WT] |
| --- | --- |
| chain 1 V7L | ~85 |
| chain 1 V7I | ~110 |
| chain 1 W4A, chain 1 V7A | ~5 |
| chain 1 W4F | ~50 |
| chain 1 W4Y | ~25 |

Variants of: B3
Experiment: peptide array ELISA (biotinylated peptide on streptavidin plate, 6xHis-mATG8, anti-His-HRP, TMB); absorbance at 450 nm; n = 4; read off a plot

| Variant | screen value [fold over mutLIR] |
| --- | --- |
| chain 1 N6A | ~9.9 |
| chain 1 V5A, chain 1 N6A | ~1.3 |
| chain 1 V5A | ~1.7 |
| chain 1 V7A | ~2 |

Variants of: B3
Experiment: peptide array (biotinylated LIR peptide, 6xHis-mATG8, absorbance); n = 3; read off a plot

| Variant | percent of parent [% Mutant LIR/WT] |
| --- | --- |
| chain 1 W4A, chain 1 V7A | ~7 |
| chain 1 V7I | ~95 |
| chain 1 V7L | ~110 |
| chain 1 W4F | ~60 |
| chain 1 W4Y | ~55 |
